± gives the half width of the 95% confidence interval.
test: folding stability dG unfold from chymotrypsin proteolysis; higher = more stable
Outline: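 Digests were run with trypsin and chymotrypsin at 11 concentrations in threefold dilutions, plus a no-protease condition, on designed mini-proteins in a PA-tagged cDNA display construct. The mini-proteins were under 80 residues, had no cysteine, and were kept only when AlphaFold2 dimer inter-PAE was above 15. After sequencing, Bayesian fitting of the counts gave K50, from which unfolding free energy was derived against a sequence-predicted unfolded-state K50 and a shared folded-state K50, per protease or combined.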

Row | Sequence | folding stability dG unfold [kcal/mol]
1 | MVAVFEFTFKSEEELLEAAEEVARRLAAELGLPEEELEKIPIEVEVEEIGNEDGEKEYKLTIRFGFPEEFLS [r1_81_TrMRF] | 3.92 ± 0.05
2 | SAGGSAGGSKIEIHVQVSPELSPEEALERIRREIEEALPEELKDISLDDIIITVYPSHPDVPLSAGGSAGGS [r12_384_TrMRF] | -0.0223 ± 0.053
3 | NKRIKIFIGGDDPSMAEQIQQWLQDNGYNVEVHVFTSPEDMKKAREWAEQNDIVIVIQVPPPPPKDPGDNNS [r1_497_TrROS] | 3.487 ± 0.024
4 | SAGGSPNIKITSKEKEGSKLKYTIQTPDKTITIEYSEGKATFKFPDGSTKTLTGKGSLEKAIKEAVLSSAGG [r13_98_JUSTAS] | 1.99 ± 0.25
5 | SAGGSAGGSAMSPTEAERARPVPVVKTETTVTLDPSGYRVETVTYDGGVTETVVTPLPPELASAGGSAGGSA [r18_192_JUSTAS] | -0.143 ± 0.11
6 | SAGGMPVTLEIVLPNLHDVLGPEFFDALKNITVPNGTPIKKITVKPIGDKTVILIEVDSPEDAKDILGSAGG [r13_269_TrMRF] | 1.66 ± 0.17
7 | SAGGSAGGSAGGGRMLLTETETIFSPSGGESVVTRLVTVFRPPPPVFLPDPEGRWSELVSAGGSAGGSAGGS [r10_330_JUSTAS] | 0.769 ± 0.3
8 | SMTLVLDVSPDKAYKFKIEYKTPDGKRLTVDADTTMEPDGTARVPLKIPDSSVPPGTPLEIEKVEVTPLLSA [r9_359_JUSTAS] | 0.699 ± 0.099
9 | SAGGSADPGKPIQIAIMIHIDPEPGRIEIPIYIMDDNRVRPVSIEFTPAGTLKIEVGNKEIEIPIKSAGGSA [r15_507_TrROS] | 2.01 ± 0.042
10 | SAGGKVVVLTFPKDNPEEVREALAKLPNVVRVEVEKVNDRYLAVAELEGELAVFVSLPDGRYVLLVLGSAGG [r13_907_TrMRF] | 2.994 ± 0.021
11 | SAGGKKPKVKKVKVKLTLVDPETGEEVEVEAELYELPDGYVVLTVRNKKTGKTYRFVFKDGKLYLEPVSAGG [r13_117_TrROS_Hall] | 4.46 ± 0.11
12 | SAGGLIEKLKELGFEIVSVEEREETLPNGKKVRTVKITVKLPNGELVKIEVRVLPNGEVIIKIEVKKPSAGG [r13_818_TrROS_Hall] | 3.17 ± 0.89
13 | SAGGAPVSVSTSTLPDGRTVTTTTYPSGSTTTTITDPVTGATATASSPGSGTTTFTDPATGATTVVGSAGGS [r16_91_JUSTAS] | 0.635 ± 0.029
14 | SAGGSAGGSAGGKIYYLDKDLFVIDLPDPKTGKPIKIAIGGDPNRPDEILKLAKELAESSAGGSAGGSAGGS [r10_379_TrMRF] | -0.398 ± 0.26
15 | SAGGSAGGPNWVKFPIMFEMPIPVVPKMEKDPDGENRMEPVKPVRISIMIELTLPPDDLEDLIKSAGGSAGG [r6_120_TrROS] | 2.28 ± 0.11
16 | SAGGSAGGSGSSTEVTTTTLPDTSYTTTNSTTTTFSPDQPEAVEAGLPVPSTVTTTTTTSPAGSAGGSAGGS [r20_138_JUSTAS] | 0.0599 ± 0.1

Row | Sequence | folding stability dG unfold [kcal/mol]
17 | SAGGSAGGSAGPTLTLELLFRNEDGSLYAVRVRYDLDTDKVEIEVRRLPPAEPVTVTVEDSAGGSAGGSAGG [r11_657_TrROS_Hall] | 4.26 ± 0.052
18 | SQTIRLELKNPDGRKIRIEIPVQRNPGNGYYYVSVKIEYYDPNGKPKERPITAPFNSPEDAEDQAREALRSA [r9_337_TrROS] | 2.06 ± 0.16
19 | SAGGSAGGRIPLEDIEIVEVSEETLPNTEKVYHVLVKLPEGYIEATFLPNTGLEEAVERLLALESAGGSAGG [r6_232_TrMRF] | 0.493 ± 0.097
20 | SAGGIRIRFWVPSPEEAREMAETIAKWLMEEHPGAKIKIEPKKVEPNPDNGYYRVEVPIKIVLPGQPISAGG [r13_585_TrROS] | 1.89 ± 0.057
21 | SAGGAFIKDFDVEEDPNGHRKFKFELPNGWKYDITIHPDFPQIEIKPIKPIEPPPIPADDPEQAEEQSAGGS [r16_482_TrROS] | 0.429 ± 0.47
22 | SAGSITIPIDDPEEMKDQLKNIAENFGMSNQDAEQFKDQLKENIEIHRDGDRWYITIQPPPPPDPGQPPSAG [r5_717_TrROS] | -0.145 ± 0.55
23 | SAGGGSLSDIATVDTSSYTDPNNPASVTVTNVTIPDGSTVTVTYNPTTGTVTVTTATDGTTTTTTIPSSAGG [r13_960_JUSTAS] | 0.917 ± 0.056
24 | SAGGMPKIVEIEILSEEYDPSTGVRTYTAKVTYPDGTEEVVTIPVDLTDGNATEEEVKKRVEELVLESAGGS [r16_221_JUSTAS] | 3.66 ± 0.11
25 | SPESIEVQISKSSSTSPSGGSEEIYTVTVTYPATGKTLTKNFTATLNPDGTTNPNGSPEELAAKLAAELLAS [r1_77_JUSTAS] | 2.23 ± 0.026
26 | SAGGSAGGSISQIKSKIKKILEEKGLKPTKIVIKKTEKLKNKIKVEVEVEIGKGPKISMIIEIESAGGSAGG [r6_841_JUSTAS] | 2.43 ± 0.16
27 | SAGGGMKISTVETKPESDGSIVITIKVYDANGNEIKTYTIPLKGLSNVTITIPVANNPIEVSIPATLSSAGG [r13_427_JUSTAS] | 2.05 ± 0.078
28 | SAGGSAGGSAGKKKKKKKKKPPVTLTVEIEIEINGKKYIAKKKVKLNKDGKLEVEVEIYPSAGGSAGGSAGG [r11_555_TrROS_Hall] | 3.23 ± 0.065
29 | SAGGSAGGSRLGLEEFERIAREIAEELGISDLVAEVEELEDDYALLTIYNPETGEKLEILVPGSAGGSAGGS [r12_1000_TrMRF] | 0.898 ± 0.025
30 | MMTKEEIEKLAEELAKELEKKGYKIVKVEIEEVKPGEVKIKVDGKEITITLKDGRKLRIKVEVKKLPKEELS [r1_31_TrROS_Hall] | 3.63 ± 0.11
31 | SAGVISPTDPTTTTTTEVRESEDGTTTTVSTVTYPGTGSTMTVTTTTTHDPSTGTSTVTSTTTTDPSASAGG [r19_342_JUSTAS] | 0.394 ± 0.029

Source: the supplement of paper PMC12764529
